Results from US20240368668A1, “SUBSTRATES AND BIOMARKERS OF ADAMTS7” (The Broad Institute, Inc., priority 2021, published 2024).
Square brackets hold non-standard residues; d marks the D form. Ends that are not written are not given here.

The substances below were run against T1, mouse ADAMTS7 (Mus musculus, UniProt Q68SA9) (assay: TMT10 TAILS N-terminomics, SMC2 experiment (process replicates, trypsin/AspN digest)). Settings: SMC2_TAILS HC; log fold change of N-terminal peptide, Ad-mADAMTS7 WT over Luc.
T1 construct: Full-length mouse Adamts7 1-1857 (Uniprot Q68SA9, WT or E373Q catalytic mutant); expressed in transfected cells; host or cells: Human Coronary Artery Smooth Muscle Cells (HCA-SMC, Lonza), adenovirus 50 MOI
T1 sequence (Q68SA9 221-1657): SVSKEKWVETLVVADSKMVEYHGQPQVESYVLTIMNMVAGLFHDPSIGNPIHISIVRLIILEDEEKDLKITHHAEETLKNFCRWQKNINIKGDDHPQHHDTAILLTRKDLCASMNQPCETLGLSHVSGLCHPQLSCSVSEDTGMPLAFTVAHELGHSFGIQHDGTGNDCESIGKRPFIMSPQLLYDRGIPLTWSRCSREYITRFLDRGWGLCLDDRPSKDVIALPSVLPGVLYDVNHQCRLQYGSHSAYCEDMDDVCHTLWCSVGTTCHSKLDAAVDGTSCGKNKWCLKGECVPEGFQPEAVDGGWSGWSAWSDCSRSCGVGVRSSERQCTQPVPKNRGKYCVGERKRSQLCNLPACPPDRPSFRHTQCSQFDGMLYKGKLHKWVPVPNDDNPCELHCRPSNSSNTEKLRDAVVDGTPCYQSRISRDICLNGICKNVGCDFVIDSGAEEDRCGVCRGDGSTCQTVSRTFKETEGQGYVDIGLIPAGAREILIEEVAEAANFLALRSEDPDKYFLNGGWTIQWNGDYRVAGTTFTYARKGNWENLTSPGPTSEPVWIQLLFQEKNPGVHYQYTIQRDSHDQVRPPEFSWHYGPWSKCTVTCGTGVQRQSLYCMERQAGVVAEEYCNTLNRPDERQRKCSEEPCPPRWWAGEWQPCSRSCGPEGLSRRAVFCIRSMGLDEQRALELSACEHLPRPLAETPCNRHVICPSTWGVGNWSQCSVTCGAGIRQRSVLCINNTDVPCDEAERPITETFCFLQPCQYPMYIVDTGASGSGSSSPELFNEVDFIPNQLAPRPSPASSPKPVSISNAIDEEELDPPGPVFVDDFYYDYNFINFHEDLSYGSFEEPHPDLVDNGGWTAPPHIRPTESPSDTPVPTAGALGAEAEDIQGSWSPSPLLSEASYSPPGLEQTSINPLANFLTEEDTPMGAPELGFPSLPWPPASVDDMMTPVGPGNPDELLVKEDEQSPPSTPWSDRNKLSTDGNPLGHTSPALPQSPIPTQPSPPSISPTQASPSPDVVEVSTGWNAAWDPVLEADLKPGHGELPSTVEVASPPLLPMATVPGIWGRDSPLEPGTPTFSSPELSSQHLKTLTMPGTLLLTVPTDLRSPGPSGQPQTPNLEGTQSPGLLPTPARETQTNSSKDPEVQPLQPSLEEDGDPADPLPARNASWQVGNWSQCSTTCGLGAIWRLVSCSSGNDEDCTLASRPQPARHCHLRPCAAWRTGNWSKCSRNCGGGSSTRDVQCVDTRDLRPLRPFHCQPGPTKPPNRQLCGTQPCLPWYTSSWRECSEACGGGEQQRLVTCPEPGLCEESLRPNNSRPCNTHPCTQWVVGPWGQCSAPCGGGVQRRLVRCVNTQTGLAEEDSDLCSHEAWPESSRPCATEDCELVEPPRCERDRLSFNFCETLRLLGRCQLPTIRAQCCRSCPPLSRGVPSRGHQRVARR
Type: cell-based
How it was run: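 Full-length mouse ADAMTS7 (WT or E373Q mutant, C-terminal 3xFLAG) or luciferase was transduced via adenovirus, 50 MOI, into HCA-SMC (SMC1, SMC2) or HUVEC. SMC1: pooled media, technical triplicates 400 ug; SMC2: process triplicates 300 ug; HUVEC: process triplicates 200 ug, bFGF2 10 ng/ml.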
Substance “ZSCAN4_25 (FQQSQGPAVQR; listed as Homo sapiens)” has a logFC.mWT.over.Luc of 2.79. In the case of “VIM_322 (QVQSLTCEV; listed as Homo sapiens)”, the logFC.mWT.over.Luc is reported as 1.01. “VIM_276 (YESVAAKNLQ; listed as Homo sapiens)” showed a logFC.mWT.over.Luc of 0.88. Substance “VCAN_3367 (FKNSSSAK; listed as Homo sapiens)” has a logFC.mWT.over.Luc of 0.79.

Same assay, conditions: SMC2_TAILS HC; log fold change, mWT over Luc
“FN1_99 (DKYTGNTYR; listed as Homo sapiens)” was tested, and the logFC.mWT.over.Luc was 1.35. In the case of “FN1_1780 (LQGLRPGSEYTVSVVALH; listed as Homo sapiens)”, the logFC.mWT.over.Luc is reported as 1.67. Work on “LOX_125 (FQAGYSTSR; listed as Homo sapiens)” yielded a logFC.mWT.over.Luc of 3.45. Work on “AMER2_654 (LAGTTIRATACH; listed as Homo sapiens)” yielded a logFC.mWT.over.Luc of 0.95. Work on “FSTL_1290 (LQKHQETA; listed as Homo sapiens)” yielded a logFC.mWT.over.Luc of 2.58. For “ACTN4_5 (HAANQSYQYGPSSAGNGAGGGGSMG; listed as Homo sapiens)”, the logFC.mWT.over.Luc was 2.65. “FLNA_689 (VNKPAEFTV; listed as Homo sapiens)” showed a logFC.mWT.over.Luc of 4.67. Work on “LASP1_182 (SYGGYKEPAAPVSIQR; listed as Homo sapiens)” yielded a logFC.mWT.over.Luc of 0.87. “APLP2_452 (LVETHLAR; listed as Homo sapiens)” showed a logFC.mWT.over.Luc of 2.70. Work on “FN1_1805 (LIGTQSTAIPAPT; listed as Homo sapiens)” yielded a logFC.mWT.over.Luc of 2.43. With “FBLN2_665 (FSQVASNTIPLPLPQPNTCK; listed as Homo sapiens)” the logFC.mWT.over.Luc was 1.74. With “FN1_607 (SSSGPVEVFIT; listed as Homo sapiens)” the logFC.mWT.over.Luc was 1.08. “HEG1_224 (FQTKSGTAS; listed as Homo sapiens)” showed a logFC.mWT.over.Luc of 3.54. With “ECM1_38 (FQEVGYAAPPSPPLSR; listed as Homo sapiens)” the logFC.mWT.over.Luc was 1.54. “EEF1G_23 (QYSGAQVR; listed as Homo sapiens)” gave a logFC.mWT.over.Luc of 3.18. With “DBN1_434 (APVEPATA; listed as Homo sapiens)” the logFC.mWT.over.Luc was 1.61. In the case of “FLNC_2649 (FVGQKNSFTV; listed as Homo sapiens)”, the logFC.mWT.over.Luc is reported as 3.91. “ACTG1_105 (LTEAPLNPKANR; listed as Homo sapiens)” was tested, and the logFC.mWT.over.Luc was 1.80. For “CCL2_28 (INAPVTCCYNFTNR; listed as Homo sapiens)”, the logFC.mWT.over.Luc was 1.35. “EMSY_943 (QTVVQVLAVK; listed as Homo sapiens)” was tested, and the logFC.mWT.over.Luc was 1.13. For “FN1_1693 (LQPTVEYVVSVYAQNPSG; listed as Homo sapiens)”, the logFC.mWT.over.Luc was 1.99. “CALU_176 (FTAFLHPEEY; listed as Homo sapiens)” showed a logFC.mWT.over.Luc of 2.37. Work on “ECM1_44 (AAPPSPPLSR; listed as Homo sapiens)” yielded a logFC.mWT.over.Luc of 2.25. Substance “DIS3L_75 (FPELKGIIFMQTACQAVQHQR; listed as Homo sapiens)” has a logFC.mWT.over.Luc of 1.77. In the case of “CEP192_728 (DKSTAGR; listed as Homo sapiens)”, the logFC.mWT.over.Luc is reported as 2.33. “CAP1_300 (FSAPKPQTSPSPKR; listed as Homo sapiens)” was tested, and the logFC.mWT.over.Luc was 2.91. “EIF4B_426 (QTGTSTTSSR; listed as Homo sapiens)” showed a logFC.mWT.over.Luc of 5.61. Work on “FN1_35 ([code q]MVQPQSPVAVSQSKPGCY; not fully specified (residue 2); listed as Homo sapiens)” yielded a logFC.mWT.over.Luc of 1.99. “APOA1_86 (EQLGPVTQEFW; listed as Homo sapiens)” showed a logFC.mWT.over.Luc of 1.80. For “LOX_60 (LGSQYQPQR; listed as Homo sapiens)”, the logFC.mWT.over.Luc was 1.25. In the case of “FOXG1_235 (LNKCFVKVPRHY; listed as Homo sapiens)”, the logFC.mWT.over.Luc is reported as 3.42. In the case of “ADAM10_86 (FKVETSNKVL; listed as Homo sapiens)”, the logFC.mWT.over.Luc is reported as 2.45. For “LOXL1_157 (SVSASAFASTYR; listed as Homo sapiens)”, the logFC.mWT.over.Luc was 2.71. “KCND1_436 (RLAKSGTTNAFLQYKQNGGLE; listed as Homo sapiens)” showed a logFC.mWT.over.Luc of 1.60. In the case of “KRT28_2 (SLQFSNGSR; listed as Homo sapiens)”, the logFC.mWT.over.Luc is reported as 1.88. “BMPER_43 (LTGSVAKCENEG; listed as Homo sapiens)” was tested, and the logFC.mWT.over.Luc was 2.37. Substance “ADNP2_375 (SQPVGPVNK; listed as Homo sapiens)” has a logFC.mWT.over.Luc of 5.35. In the case of “ECM1_108 (QEAVPLQK; listed as Homo sapiens)”, the logFC.mWT.over.Luc is reported as 3.12. For “CTSB_109 (WAFGAVEAIS; listed as Homo sapiens)”, the logFC.mWT.over.Luc was 1.65. “ADAM9_74 (GKEHIIHLER; listed as Homo sapiens)” showed a logFC.mWT.over.Luc of 4.13.

Same assay, conditions: log fold change, ADAMTS7 WT over luciferase
Work on “STC2_244 (HHLPEPSSR; listed as Homo sapiens)” yielded a logFC.mWT.over.Lux of 1.09. With “TGFBI_50 (AVQKVIGTNR; listed as Homo sapiens)” the logFC.mWT.over.Lux was 0.96. For “TGFBI_497 (VLTPPMGTVMDVLKGDNR; not fully specified (residue 6); listed as Homo sapiens)”, the logFC.mWT.over.Lux was 0.75. “TGFBI_524 (SAGLTETLNR; listed as Homo sapiens)” showed a logFC.mWT.over.Lux of 0.84. “TMEM132A_52 (LLDAPEHFR; listed as Homo sapiens)” showed a logFC.mWT.over.Lux of 2.65. For “VASP_229 (AIAGAKLR; listed as Homo sapiens)”, the logFC.mWT.over.Lux was 4.48. With “SPOCK1_126 (HWVGPSNLVK; listed as Homo sapiens)” the logFC.mWT.over.Lux was 1.29. “THBS1_972 (QNDPNWVVR; listed as Homo sapiens)” was tested, and the logFC.mWT.over.Lux was 3.55. “STC2_239 (HGEAGHHLPEPSSR; listed as Homo sapiens)” was tested, and the logFC.mWT.over.Lux was 1.59. “SRGN_50 (LEEKGPMFELLPGESNKIPR; listed as Homo sapiens)” showed a logFC.mWT.over.Lux of 3.21. “TGFBI_208 (GIVTVNCAR; listed as Homo sapiens)” was tested, and the logFC.mWT.over.Lux was 0.89. “SDC4_106 (LEENEVIPKR; listed as Homo sapiens)” was tested, and the logFC.mWT.over.Lux was 1.32. In the case of “TGFBI_24 (GPAKSPYQLVLQHSR; listed as Homo sapiens)”, the logFC.mWT.over.Lux is reported as 0.77. Work on “TG_1017 (GASALLR; listed as Homo sapiens)” yielded a logFC.mWT.over.Lux of 4.08. “SRGN_62 (GESNKIPR; listed as Homo sapiens)” was tested, and the logFC.mWT.over.Lux was 2.82. With “QSOX1_558 (VAAAPELAMGALELESR; listed as Homo sapiens)” the logFC.mWT.over.Lux was 0.94. “TLN1_1501 (HTSALCNSCR; listed as Homo sapiens)” showed a logFC.mWT.over.Lux of 1.31. “TGFBI_534 (EGVYTVFAPTNEAFR; listed as Homo sapiens)” showed a logFC.mWT.over.Lux of 0.91. “SRGN_60 (LPGESNKIPR; listed as Homo sapiens)” gave a logFC.mWT.over.Lux of 3.57. “TGFBI_276 (TLLAPT[code n]EAFEKIPSETLNR; not fully specified; listed as Homo sapiens)” gave a logFC.mWT.over.Lux of 0.75. “TGFBI_43 ([code q]HGPNVCAVQKVIGTNR; not fully specified; listed as Homo sapiens)” was tested, and the logFC.mWT.over.Lux was 0.85. In the case of “STC1_37 (QNSAEVVR; listed as Homo sapiens)”, the logFC.mWT.over.Lux is reported as 4.56. “SMOC1_35 (LISDRDPQCNLHCSR; listed as Homo sapiens)” showed a logFC.mWT.over.Lux of 1.75. “SRGN_51 (EEKGPMFELLPGESNKIPR; listed as Homo sapiens)” gave a logFC.mWT.over.Lux of 1.66. For “VIM_433 (LVDTHSKR; listed as Homo sapiens)”, the logFC.mWT.over.Lux was 2.91.
